Legend:
[1] = target: human Collagen triple helix repeat-containing protein 1 (CTHRC1) (human) (UniProt Q96CG8); test: bio-layer interferometry; CTHRC1 species not stated
[2] = target: human Collagen triple helix repeat-containing protein 1 (CTHRC1) (human) (UniProt Q96CG8); test: binding EC50 on huCTHRC1; method not stated (ELISA named in text)

Sequence of human Collagen triple helix repeat-containing protein 1 (CTHRC1) (human) (Q96CG8 31-243): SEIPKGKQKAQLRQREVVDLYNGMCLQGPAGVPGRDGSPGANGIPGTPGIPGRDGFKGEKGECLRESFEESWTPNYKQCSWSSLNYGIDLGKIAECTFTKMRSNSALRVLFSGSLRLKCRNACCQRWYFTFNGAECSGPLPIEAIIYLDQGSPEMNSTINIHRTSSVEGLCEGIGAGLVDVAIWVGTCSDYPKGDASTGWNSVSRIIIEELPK

| Binder | Kd [1] [nM] | EC50 [2] [nM] |
| --- | --- | --- |
| CTHRC1S-M11 (antibody, V domains shown) VH: QVTLRESGPALVKPTQTLTLTCTFSGFSLSTNVMCVSWIRQPPGKALEWLALIDWDDDKYYSTSLKTRLTISKDTSKNQVVLTMTNMDPVDTATYYCARTGITGTHYYYYYMDVWGKGTTVTVSS VL: AIQMTQSPSSLSASVGDRVTITCRASQGIRNDLGWYQQKPGKAPKLLIYAASSLQSGVPSRFSGSGFGTDFTLTISSLQPEDFATYYCLQDYNYPWTFGQGTKVEIK | 2 | 9.76 |
| CTHRC1S-M14 (antibody, V domains shown) VH: EVQVVESGGGLVQPGGSLRLSCAASRFTFSNYWMSWVRQAPGRGLEWVANIKQDGSEKYYVDSVKGRFTISRDNAKNSLYLQMNSLRAEDTAVYYCAREGGYCSDTRCFFYMDVWGKGTTVTVSS VL: DIQMTQSPSTLSASVGDRVTITCRASQSIISWLAWYQQKPGKAPKLLIYKASSLEGGVPSRFSGSGSGTDFTLTISSLQPDDFATYYCQQYNSYSRTFGQGTTVEIK | < 0.001 | 0.05 |
| CTHRC1S-M5 (antibody, V domains shown) VH: EVQLVESGGGLVTPGGSLRLSCAASGFTFSTYSMNWVRQAPGKGLEWVSSISGSSGHIYYADSVRGRFTISRDNAKNSLYLQMNSLRAEDTAVYYCASMHYYYYLDVWGKGTTVTVSS VL: QAVVTQESALTTSPGETVTLTCRSSTGTVTTSNYVTWVQEKPDHLFTGLIGATNNRAPGVPARFSGSLIGDKAALTITGAQTEDEAIYFCALWYSNHWVFGGGTKLTVL | 3.18 | 1.85 |

Source: patent US20250215070A1
